Experimental data reported in paper PMC4318798 (Nature structural & molecular biology, 2015).
Read-outs that look alike come from different tables or passages of the source.

Tests used:
crystal structure = biological target: the molecule itself; test: crystal structure
SEC-MALS [1] = biological target: the molecule itself; test: SEC-MALS
SEC-MALS [2] = biological target: the molecule itself; test: SEC-MALS; remark: listed apart in the source
SEC-MALS [3] = biological target: the molecule itself; test: SEC-MALS; remark: listed apart in the source
Ctp1 61-294 = biological target: T1, Ctp1 61-294 (Schizosaccharomyces pombe, UniProt O74986 61-294); test: EMSA
T1 sequence: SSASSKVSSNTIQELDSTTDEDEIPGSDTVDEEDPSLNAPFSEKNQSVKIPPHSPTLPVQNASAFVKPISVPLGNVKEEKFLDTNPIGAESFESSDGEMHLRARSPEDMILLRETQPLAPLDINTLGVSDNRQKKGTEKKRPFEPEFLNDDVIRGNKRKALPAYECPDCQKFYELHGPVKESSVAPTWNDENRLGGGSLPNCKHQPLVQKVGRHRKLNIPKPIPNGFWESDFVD

Ctp1 WT = biological target: T2, Ctp1 WT (Schizosaccharomyces pombe, UniProt O74986 1-294); test: EMSA
T2 sequence: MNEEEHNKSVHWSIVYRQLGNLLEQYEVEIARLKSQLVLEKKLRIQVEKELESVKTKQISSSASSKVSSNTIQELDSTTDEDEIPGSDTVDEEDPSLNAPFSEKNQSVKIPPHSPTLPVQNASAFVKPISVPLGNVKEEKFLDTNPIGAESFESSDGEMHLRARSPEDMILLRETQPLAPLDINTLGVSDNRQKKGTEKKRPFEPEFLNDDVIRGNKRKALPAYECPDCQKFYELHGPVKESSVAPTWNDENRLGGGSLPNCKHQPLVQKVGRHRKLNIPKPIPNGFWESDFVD

Ctp1 K276A = biological target: T3, Ctp1 K276A (Schizosaccharomyces pombe, UniProt O74986 1-294, K276A); test: EMSA
T3 sequence: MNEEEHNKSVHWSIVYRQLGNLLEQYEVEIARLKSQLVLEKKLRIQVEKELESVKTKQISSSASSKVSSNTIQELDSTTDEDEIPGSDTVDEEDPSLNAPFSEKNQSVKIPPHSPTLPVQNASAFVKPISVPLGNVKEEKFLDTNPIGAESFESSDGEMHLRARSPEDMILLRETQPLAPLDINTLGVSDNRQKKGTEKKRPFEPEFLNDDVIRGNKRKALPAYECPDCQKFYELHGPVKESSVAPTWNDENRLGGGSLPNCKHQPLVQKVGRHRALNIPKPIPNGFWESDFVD

Ctp1 K231A = biological target: T4, Ctp1 K231A (Schizosaccharomyces pombe, UniProt O74986 1-294, K231A); test: EMSA
T4 sequence: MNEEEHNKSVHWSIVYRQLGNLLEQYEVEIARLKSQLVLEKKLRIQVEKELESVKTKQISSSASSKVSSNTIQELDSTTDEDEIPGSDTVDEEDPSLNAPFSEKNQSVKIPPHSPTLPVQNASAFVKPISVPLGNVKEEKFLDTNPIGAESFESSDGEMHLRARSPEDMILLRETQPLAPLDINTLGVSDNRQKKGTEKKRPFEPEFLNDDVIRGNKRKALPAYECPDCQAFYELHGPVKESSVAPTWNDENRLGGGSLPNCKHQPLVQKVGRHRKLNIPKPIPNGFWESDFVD

Ctp1 R273A = biological target: T5, Ctp1 R273A (Schizosaccharomyces pombe, UniProt O74986 1-294, R273A); test: EMSA
T5 sequence: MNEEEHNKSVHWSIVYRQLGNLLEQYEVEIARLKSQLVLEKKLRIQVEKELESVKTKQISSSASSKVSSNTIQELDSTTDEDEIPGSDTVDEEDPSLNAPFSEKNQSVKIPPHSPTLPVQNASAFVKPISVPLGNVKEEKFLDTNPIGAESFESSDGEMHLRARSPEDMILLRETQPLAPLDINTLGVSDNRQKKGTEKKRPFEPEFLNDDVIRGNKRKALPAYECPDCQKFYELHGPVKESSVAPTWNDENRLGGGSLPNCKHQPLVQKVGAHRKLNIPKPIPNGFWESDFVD

Ctp1 R275A = biological target: T6, Ctp1 R275A (Schizosaccharomyces pombe, UniProt O74986 1-294, R275A); test: EMSA
T6 sequence: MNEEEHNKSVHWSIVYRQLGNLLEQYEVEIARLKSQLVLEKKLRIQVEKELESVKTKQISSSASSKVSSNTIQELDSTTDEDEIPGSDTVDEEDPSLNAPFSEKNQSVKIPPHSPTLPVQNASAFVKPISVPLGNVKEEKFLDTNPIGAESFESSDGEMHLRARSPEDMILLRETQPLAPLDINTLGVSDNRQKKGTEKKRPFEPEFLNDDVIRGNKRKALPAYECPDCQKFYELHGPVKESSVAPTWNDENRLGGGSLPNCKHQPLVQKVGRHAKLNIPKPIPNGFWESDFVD

Ctp1 K219A = biological target: T7, Ctp1 K219A (Schizosaccharomyces pombe, UniProt O74986 1-294, K219A); test: EMSA
T7 sequence: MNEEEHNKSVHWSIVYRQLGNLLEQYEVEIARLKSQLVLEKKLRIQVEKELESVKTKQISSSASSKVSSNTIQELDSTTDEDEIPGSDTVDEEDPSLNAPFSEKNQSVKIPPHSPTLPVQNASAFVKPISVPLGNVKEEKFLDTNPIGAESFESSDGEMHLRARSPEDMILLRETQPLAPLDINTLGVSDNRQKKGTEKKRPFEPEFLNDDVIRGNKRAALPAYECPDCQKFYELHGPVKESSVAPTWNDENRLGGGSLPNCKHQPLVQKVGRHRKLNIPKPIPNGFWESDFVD

Ctp1 151-294 = biological target: T8, Ctp1 151-294 (Schizosaccharomyces pombe, UniProt O74986 151-294); test: EMSA
T8 sequence: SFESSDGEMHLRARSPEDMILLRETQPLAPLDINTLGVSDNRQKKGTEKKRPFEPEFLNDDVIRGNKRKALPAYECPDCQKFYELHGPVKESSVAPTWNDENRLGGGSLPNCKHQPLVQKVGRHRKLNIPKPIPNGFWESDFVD

Ctp1 1-150 = biological target: T9, Ctp1 1-150 (Schizosaccharomyces pombe, UniProt O74986 1-150); test: EMSA
T9 sequence: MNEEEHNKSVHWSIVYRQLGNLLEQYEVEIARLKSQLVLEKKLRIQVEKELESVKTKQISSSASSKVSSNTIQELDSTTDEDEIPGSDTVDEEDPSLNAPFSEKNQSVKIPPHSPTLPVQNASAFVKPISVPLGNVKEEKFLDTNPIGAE

B1: Ctp1_(5–60)-L51M (domain or fragment, S. pombe, UniProt O74986 5-60, looked up)
chain: EHNKSVHWSIVYRQLGNLLEQYEVEIARLKSQLVLEKKLRIQVEKEMESVKTKQIS
B1: binds (crystal structure).

With VYRQLGNLLEQYEVEIARLKSQLVLEKKLRIQVEKELESVKTKQIS (domain or fragment, S. pombe, UniProt O74986 15-60, looked up) [MBP-Ctp1_(15–60)] the “stoichiometry N” value (SEC-MALS [1]) was 2.

B2: full-length S. pombe Ctp1 (natural protein, UniProt O74986 1-294, looked up)
chain: MNEEEHNKSVHWSIVYRQLGNLLEQYEVEIARLKSQLVLEKKLRIQVEKELESVKTKQISSSASSKVSSNTIQELDSTTDEDEIPGSDTVDEEDPSLNAPFSEKNQSVKIPPHSPTLPVQNASAFVKPISVPLGNVKEEKFLDTNPIGAESFESSDGEMHLRARSPEDMILLRETQPLAPLDINTLGVSDNRQKKGTEKKRPFEPEFLNDDVIRGNKRKALPAYECPDCQKFYELHGPVKESSVAPTWNDENRLGGGSLPNCKHQPLVQKVGRHRKLNIPKPIPNGFWESDFVD
With B2 the “stoichiometry N” value (SEC-MALS [2]) was 4.

B3: Ctp1 R32A K41A (natural protein, S. pombe, UniProt O74986 1-294, looked up)
chain: MNEEEHNKSVHWSIVYRQLGNLLEQYEVEIAALKSQLVLEAKLRIQVEKELESVKTKQISSSASSKVSSNTIQELDSTTDEDEIPGSDTVDEEDPSLNAPFSEKNQSVKIPPHSPTLPVQNASAFVKPISVPLGNVKEEKFLDTNPIGAESFESSDGEMHLRARSPEDMILLRETQPLAPLDINTLGVSDNRQKKGTEKKRPFEPEFLNDDVIRGNKRKALPAYECPDCQKFYELHGPVKESSVAPTWNDENRLGGGSLPNCKHQPLVQKVGRHRKLNIPKPIPNGFWESDFVD
B3: binds (SEC-MALS [3]).

B4: Ctp1_(1–60) (domain or fragment, S. pombe, UniProt O74986 1-60, looked up)
chain: MNEEEHNKSVHWSIVYRQLGNLLEQYEVEIARLKSQLVLEKKLRIQVEKELESVKTKQIS
With B4 the “stoichiometry N” value (SEC-MALS [2]) was 4.

B5: MBP-Ctp1_(1–60) (domain or fragment, S. pombe, UniProt O74986 1-60, looked up)
chain: MNEEEHNKSVHWSIVYRQLGNLLEQYEVEIARLKSQLVLEKKLRIQVEKELESVKTKQIS
For B5, the “stoichiometry N” value (SEC-MALS [1]) was 4.

B6: fork (ssDNA/splay) (mixed)
DNA 1: GCAGGAGGTGGCGTCGGGTGGACGGGTGGATTGAAATTTAGGCTGGCACGGTCT
DNA 2: AGACCGTGCCAGCCTAAATTTCAATCCAAGGTCTCGACTAACTCTAGTCGTTGT
B6 was tested, and the Kd (Ctp1 61-294) was 1000 nM.

B7: ssDNA 54 nt (ssDNA)
DNA: GCAGGAGGTGGCGTCGGGTGGACGGGTGGATTGAAATTTAGGCTGGCACGGTCT
B7: binds (Ctp1 WT).

B8: 54 bp dsDNA (dsDNA)
DNA 1: GCAGGAGGTGGCGTCGGGTGGACGGGTGGATTGAAATTTAGGCTGGCACGGTCT
DNA 2: AGACCGTGCCAGCCTAAATTTCAATCCACCCGTCCACCCGACGCCACCTCCTGC
B8: no binding (Ctp1 K276A); no binding (Ctp1 K231A); no binding (Ctp1 R273A). B8: no binding (Ctp1 R275A); no binding (Ctp1 K219A).

B9: 39 bp dsDNA (39bpf/39bpr) (dsDNA)
DNA 1: CAGAGTCATAATATGCAGGTGCAGGTTATTCATGCTCGG
DNA 2: CCGAGCATGAATAACCTGCACCTGCATATTATGACTCTG
B9: no binding (Ctp1 151-294); no binding (Ctp1 1-150).
